For experiment [1], the target named is mouse Toll-like receptor 5 (mouse) (UniProt Q9JLF7). The experiment is described as follows: cell-based or functional assay.
The target of experiment [2] is human Toll-like receptor 5 (human) (UniProt O60602). The experiment is described as follows: cell-based or functional assay.
UniProt O60602, sequence (O60602 21-858): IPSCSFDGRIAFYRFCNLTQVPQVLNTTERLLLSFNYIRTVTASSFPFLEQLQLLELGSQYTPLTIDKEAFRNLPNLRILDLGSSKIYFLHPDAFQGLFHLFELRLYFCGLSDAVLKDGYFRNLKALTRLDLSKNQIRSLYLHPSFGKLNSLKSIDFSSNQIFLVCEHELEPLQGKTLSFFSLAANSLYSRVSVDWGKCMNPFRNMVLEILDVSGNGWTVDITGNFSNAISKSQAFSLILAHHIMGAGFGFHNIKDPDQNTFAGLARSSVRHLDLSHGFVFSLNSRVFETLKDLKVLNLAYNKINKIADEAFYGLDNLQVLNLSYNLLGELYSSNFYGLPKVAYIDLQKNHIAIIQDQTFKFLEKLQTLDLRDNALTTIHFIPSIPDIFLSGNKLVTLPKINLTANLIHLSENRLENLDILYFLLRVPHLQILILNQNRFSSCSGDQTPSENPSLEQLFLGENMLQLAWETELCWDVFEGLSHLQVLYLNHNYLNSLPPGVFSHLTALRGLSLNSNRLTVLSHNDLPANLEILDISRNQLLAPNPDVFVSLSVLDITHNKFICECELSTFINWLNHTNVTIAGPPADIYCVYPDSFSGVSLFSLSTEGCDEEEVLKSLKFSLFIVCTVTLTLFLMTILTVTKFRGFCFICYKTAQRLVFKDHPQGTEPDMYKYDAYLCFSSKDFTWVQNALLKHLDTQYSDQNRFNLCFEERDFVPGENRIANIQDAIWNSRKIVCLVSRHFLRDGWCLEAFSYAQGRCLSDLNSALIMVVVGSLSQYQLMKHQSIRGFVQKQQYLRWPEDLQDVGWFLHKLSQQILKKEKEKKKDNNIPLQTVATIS

UniProt Q9JLF7, sequence (Q9JLF7 27-859): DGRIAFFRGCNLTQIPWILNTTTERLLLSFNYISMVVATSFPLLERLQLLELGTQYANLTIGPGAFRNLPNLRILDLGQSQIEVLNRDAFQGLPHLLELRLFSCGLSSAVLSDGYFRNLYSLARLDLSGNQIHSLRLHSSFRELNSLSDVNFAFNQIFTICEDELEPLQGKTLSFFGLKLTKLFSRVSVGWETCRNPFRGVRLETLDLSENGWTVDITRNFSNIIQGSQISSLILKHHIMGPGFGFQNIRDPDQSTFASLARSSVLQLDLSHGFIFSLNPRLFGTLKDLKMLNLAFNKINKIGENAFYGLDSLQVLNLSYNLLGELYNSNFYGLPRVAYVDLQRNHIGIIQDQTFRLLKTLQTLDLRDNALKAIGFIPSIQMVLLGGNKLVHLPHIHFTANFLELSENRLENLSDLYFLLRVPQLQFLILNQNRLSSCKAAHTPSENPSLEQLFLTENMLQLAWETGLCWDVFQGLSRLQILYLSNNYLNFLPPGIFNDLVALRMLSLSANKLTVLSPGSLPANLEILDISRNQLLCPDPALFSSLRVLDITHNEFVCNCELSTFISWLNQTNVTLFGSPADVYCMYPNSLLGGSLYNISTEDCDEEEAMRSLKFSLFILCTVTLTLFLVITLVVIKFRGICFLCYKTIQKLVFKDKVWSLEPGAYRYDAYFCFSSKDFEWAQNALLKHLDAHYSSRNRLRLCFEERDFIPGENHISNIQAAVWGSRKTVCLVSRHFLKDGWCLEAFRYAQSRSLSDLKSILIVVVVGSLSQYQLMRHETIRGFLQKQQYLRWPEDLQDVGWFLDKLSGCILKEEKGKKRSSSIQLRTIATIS

For the substance “recombinant mutant flagellin FliC L88A (from UniProt P72151 2-488) (ligand)”, the TLR5-mediated NF-κB activation (luciferase, HEK293 cells with mouse TLR5) (fold lower than FliC WT) in experiment [1] was above 100. For the same substance, the TLR5-mediated NF-κB activation (luciferase, HEK293 cells with human TLR5) (fold lower than FliC WT) in experiment [2] was above 100.
“recombinant mutant flagellin FliC R90A (from UniProt P72151 2-488) (ligand)” displayed a TLR5-mediated NF-κB activation (luciferase, HEK293 cells with mouse TLR5) (fold lower than FliC WT) in experiment [1] above 100. This substance came in with a TLR5-mediated NF-κB activation (luciferase, HEK293 cells with human TLR5) (fold lower than FliC WT) in experiment [2] above 100.
